Experimental data published in patent US20220009987A9, “HUMAN RESISTIN COMPOSITIONS AND METHODS OF TREATING TLR4-MEDIATED DISEASE AND INFECTION” (THE REGENTS OF THE UNIVERSITY OF CALIFORNIA, priority 2017, published 2022).
Entries after “also recorded” stand apart in the source; their conditions may differ.

Tested on: human PBMCs
Test: Human PBMC functional assay, LPS-induced cytokine secretion (ELISA)
Format: cell-based
Experimental: Human PBMCs. Human buffy coat was purchased from Zen-bio. Buffy coat was overlaid on top of Histopaque-1077 and spun at 700g at 25° C. with no brake and PBMCs were recovered from the interphase. PBMCs were plated in 96-well plates and stimulated with mammalian-derived human resistin (1 μg/mL, LifeSpan Biosciences) or hRetn N-peptide (1 μg/mL). After 24 hours, ultrapure LPS (100 ng/mL, Invivogen) was added and supernatants recovered for ELISA at 24 hours. Where indicated, cells were incubated for 4 hours with STAT3 (5, 15-DPP, 50 μM) or TBK1 (BX-795, 1 μM) inhibitors prior to hRetn treatment. For the hRetn competitive binding assay, 1×10^6 cells were incubated with recombinant hRetn (0.5 μg), washed in PBS then incubated with 0.5 μg LPS-biotin (incubations were 30 minutes on ice). Cells were washed in FACS buffer, treated with Fc block, and stained with BV605-conjugated streptavidin and α-human primary antibodies: CD14 (clone M5E2), CD11 b (clone M1/70) and MD2/TLR4 (clone HTA125) purchased from Affymetrix.
Cytokine Quantification. Sandwich ELISAs were performed using capture and biotinylated antibodies for human resistin (Peprotech), IL-10 and TNFα (BD Biosciences) according to manufacturer's instructions. Detection was performed with streptavidin-peroxidase (Jackson ImmunoResearch) and TMB peroxidase substrate (BD Biosciences), followed by addition of 2N H2SO4. Optical density (OD) was captured at 450 nm. Samples were compared to serial-fold dilution of recombinant protein. For Luminex, inflammatory cytokine kits (Affymetrix) were run according to manufacturer's instructions and quantified on Luminex MagPix (Luminex Corp.). For cytokine bead array, cytokine kits from BD Bioscience were run according to manufacturer's instructions on BD LSRII and analyzed using FCAP Array Software.

[1] = human PBMC, pre-treatment then LPS 100 ng/mL

B1: hRetn: human resistin protein (hRetn) having an amino acid sequence of SEQ ID NO: 1; recombinant, E. coli-derived or 293T cell-derived (protein, listed as Homo sapiens)
chain: MKALCLLLLPVLGLLVSSKTLCSMEEAINERIQEVAGSLIFRAISSIGLECQSVTSRGDLATCPRGFAVTGCTCGSACGSWDVRAETTCHCQCAGMDWTGARCCRVQP
hRetn functional effect on TNFα and IL-10 when STAT3 signaling was inhibited (human PBMC, 5,15-DPP 50 μM 4 hours prior to hRetn): also abrogated | hRetn functional effect on TNFα and IL-10 in the presence of TBK1 inhibitor (human PBMC, BX-795 1 μM 4 hours prior to hRetn): abrogated | IL-10 expression after LPS [1]: increased IL-10 expression | LPS-induced TNFα secretion [1]: significantly more TNFα than cells treated with hRetn and LPS; also recorded: significantly reduced LPS-induced TNFα secretion
